Laboratory results: the DeepSol protein solubility set

Test: soluble on expression in E. coli; label from the status in PepcDB or PDB records
With “MSLKILICSDTHLGAGEKSHCLKDDCYLAFEEILQQANQEDVDLILHSGDFFDDQNPSKYCLTKTMELMRKYLMGKPKNSFDVAYTYEHNQEDNGFSMNQGIKYPMYVIHGNHDIPSGIEHVAGLDILQTAGLVNFIGKAEDISEIDNKTDQTILHLSPILLQKGTTRIALYGMSYKKNEEMNRLWASSQVQIDEPDGDVFKILLIHQDRILRNTLTTFPEELLKDRFNLIVFGHEHSSQVEEGTDVQIIQTGSSFPLSICEFEKAEKFIGLAHINGMKINMNKIALRNVREVFYEVVQMSQMIEGSANLEMVEHYIREEVQNFFDHVNTHSKTMLPLARIIIEYKSLGCIPNLRKMAFEFEKNIVNKGDCIKLKKKIQKREGHHHHHH” the “soluble on expression in E. coli” value was “soluble”. With “MSSPDSAAHQFSICRVCDDSNGQPHYGTICCPSCKGFFRRVYMSDKKFECYRGNMCVIQKGTRNICRACRYKKCLQVGMNVKGSTTRHNLRINIYVQTSAESTPKSSKDTEMGVAEAMEMAQVYMNLEKYCENNYCESNMCREEENRLIDRMLSSTVHELIQKTSPQCPRFKRDWKPLEMLNLENFCRSWSRSIVHFLDFATRFPVFNQLSHIDKRAWFISRLAPCSFLTMAYQTRIEMCEGLLFGCSNVFPLKSDRWIAVETEHLRGLFSSITETMFSFVIYPMMNLKITDLHYSLLKACVFFSAGIVVTSVSDKGMEIMRNEYTKHKNALMKLLMNGVERFSQQTDILFQIQDVQNTLEHHKHLKSQQI” the “soluble on expression in E. coli” value was “soluble”. With “MGSDKIHHHHHHMNPQLLRVTNRIIERSRETRSAYLARIEQAKTSTVHRSQLACGNLAHGFAACQPEDKASLKSMLRNNIAIITSYNDMLSAHQPYEHYPEIIRKALHEANAVGQVAGGVPAMCDGVTQGQDGMELSLLSREVIAMSAAVGLSHNMFDGALFLGVCDKIVPGLTMAALSFGHLPAVFVPSGPMASGLPNKEKVRIRQLYAEGKVDRMALLESEAASYHAPGTCTFYGTANTNQMVVEFMGMQLPGSSFVHPDSPLRDALTAAAARQVTRMTGNGNEWMPIGKMIDEKVVVNGIVALLATGGSTNHTMHLVAMARAAGIQINWDDFSDLSDVVPLMARLYPNGPADINHFQAAGGVPVLVRELLKAGLLHEDVNTVAGFGLSRYTLEPWLNNGELDWREGAEKSLDSNVIASFEQPFSHHGGTKVLSGNLGRAVMKTSAVPVENQVIEAPAVVFESQHDVMPAFEAGLLDRDCVVVVRHQGPKANGMPELHKLMPPLGVLLDRCFKIALVTDGRLSGASGKVPSAIHVTPEAYDGGLLAKVRDGDIIRVNGQTGELTLLVDEAELAAREPHIPDLSASRVGTGRELFSALREKLSGAEQGATCITF” the “soluble on expression in E. coli” value was “not soluble”. With “GPGSMSKQLTFISAGATAAVLQSASAIVSKVAGGRVQTKTAKEAGRHAVVVGPETPIGVHTAVTEAPKSAQDPLFSGVSTVVVRAVLPRAAPDSVQLRDALDVYASAGIDTKEEVRSATEAFKKSAEVAVGKAKAKGVKRIVLVVKQASKHNCINELFKKISTETIESAGLTTEVVGTASVANQLIVNPESLGVVLLNDVAATEQIELAFAGVVGGVSRVYHTVEGGKISAGHSFKSVALAVAQELRELGLSSEADKVEAAASKNPRAVVSAL” the “soluble on expression in E. coli” value was “not soluble”. With “MSLNGKNLTLNVPVTAAVPGARGIKADCITDGACTESSTYFQKSSNAATGSPYMFTIDMQKEAVISEINLSTRLVNGSEAAYKYTIEGSRDGKSYKMLVDGKLNWQVGFLILNIEDPSLYRYLRLRVYGVVNVHKNNSAMWADGIYEFAAYGKEGHHHHHH” the “soluble on expression in E. coli” value was “not soluble”. With “TIEARTAQSTPSAPPQKVMCVSMGSTTVRVSWVPPPADSRNGVITQYSVAYEAVDGEDRGRHVVDGISREHSSWDLVGLEKWTEYRVWVRAHTDVGPGPESSPVLVRTDEDVPSGPPRKVE” the “soluble on expression in E. coli” value was “soluble”. In the case of “MAHHHHHHMSRVSVLAGQKPKPKESFKFLRRDEGRLSYSAATAESPSKNAANGADGANINRERRDSKALREAIAYDMRNAKSHDPLGEVVVAVPRKAPPPTRAVSAPPPNTNASSGTEKPAAGAPPQRRQPARAANPKKPEWVDPEIPPSPLLQAPTHTVVERPADNYFETSYSDSHSGGAAALSSGIGRSVSRGSDTNGADLGRYGGLTPRSAAMGAPRYASLKYEESSAAPLSGQDRNYFRRPLYTRDPALGSDAHSPAGSRVREEDELIASLEQEIKAAQKERNHYADARQQLDREKQRFESYRYGARQQMEDERADAGDRRSREQRDAQKDLRATEERFKNVSALLVAERETNRRLSQENDSLRTQLEDLTSTMREAHRIHKAEVARMRRDIDSLTRRNAELLAMAKEQQLQCLEGASASPSTRQSSSSPFSVSLDPSAQRASSASCEGGYDEDNDAAAVGERRASRAAPLAVMDFTPRASSREAAAREKRNRQMQNRMQAEEQAMEERKRHREQYIAGRKREEQEEKTRHRVAVDAAAAATACRRSEEDDLRKAATAAEKVVEERKMSGHPARTPRMQSGALSVKRRPSVSAVHAPVAPKRHHVPTREDLIGDMEEFPTEKFCDDDVVSQTALGDNSNKKEVLYRSGKREIHYANGTVKVVLPSGHTTLRFTNGDVKCTFPSGKSTYWYDAAQTMHTQMPDGVQAFEFRSTGQTEKHLPDGSKEILYPDGIYKMVRPDGSDETFYPDGEPMEE”, the “soluble on expression in E. coli” value is reported as “soluble”. In the case of “MSEESQAFQRQLTALIGYDVTDVSNVHDDELEFTRRGLVTPRMAEVASRDPKLYAMHPWVTSKPLPEYLWKKIANNCIFIVIHRSTTSQTIKVSPDDTPGAILQSFFTKMAKKKSLMDIPESQSEQDFVLRVCGRDEYLVGETPIKNFQWVRHCLKNGEEIHVVLDTPPDPALDEVRKEEWPLVDDCTGVTGYHEQLTIHGKDHESVFTVSLWDCDRKFRVKIRGIDIPVLPRNTDLTVFVEANIQHGQQVLCQRRTSPKPFTEEVLWNVWLEFSIKIKDLPKGALLNLQIYCGKAPALSSKASAESPSSESKGKVQLLYYVNLLLIDHRFLLRRGEYVLHMWQISGKGEDQGSFNADKLTSATNPDKENSMSISILLDNYCHPIALPKHQPTPDPEGDRVRAEMPNQLRKQLEAIIATDPLNPLTAEDKELLWHFRYESLKHPKAYPKLFSSVKWGQQEIVAKTYQLLARREVWDQSALDVGLTMQLLDCNFSDENVRAIAVQKLESLEDDDVLHYLLQLVQAVKFEPYHDSALARFLLKRGLRNKRIGHFLFWFLRSEIAQSRHYQQRFAVILEAYLRGCGTAMLHDFTQQVQVIEMLQKVTLDIKSLSAEKYDVSSQVISQLKQKLENLQNSQLPESFRVPYDPGLKAGALAIEKCKVMASKKKPLWLEFKCADPTALSNETIGIIFKHGDDLRQDMLILQILRIMESIWETESLDLCLLPYGCISTGDKIGMIEIVKDATTIAKIQQSTVGNTGAFKDEVLNHWLKEKSPTEEKFQAAVERFVYSCAGYCVATFVLGIGDRHNDNIMITETGNLFHIDFGHILGNYKSFLGINKERVPFVLTPDFLFVMGTSGKKTSPHFQKFQDICVKAYLALRHHTNLLIILFSMMLMTGMPQLTSKEDIEYIRDALTVGKNEEDAKKYFLDQIEVCRDKGWTVQFNWFLHLVLGIKQGEKHSAHHHHHH”, the “soluble on expression in E. coli” value is reported as “soluble”. In the case of “MFSRGASTMQSRELREQLLGCVKSRKSLHVTGPPGSGKSTFVSRLAEALRVKGCRLGGFMAPEVRRGGRRVAFKIVDIASGEEGYLAVADESLAAPGGRRARHGRYLVLVDEAWRVMSHAIRNAFEHADIIIVDEIGPMELAVPGFREALTEILDSGKPLVTVFHRRLRTLDPGLYKLLERGCIVWLDERNRGPLIRLVSEIASALSNEACGNSLEHHHHHH”, the “soluble on expression in E. coli” value is reported as “not soluble”. In the case of “MGSDKIHHHHHHLVGSGGTGAPPPRSSPMTTLYVTQPGSVVRSEGGSLTVWVETEADDPGPNDSPVRRKRLASVEPHRLESLVLLGFTTITANAMRLCMANKIAVSLLDGGGGLAARVVPPEARSADLRLHQYALHLDPPERLIRARAVVTAKLRNAAAVLRGIRSNQASSAALASAITQTEASAEAAAAAVSAESLLGIEGNGAHQYFAGLRTAFVGGIPFLGRAQRPPPDPANSLLSFGYVLLGNRLTGLLEARGVDPCLGFFHDLRPGRPSLALDLLEELRHPVVDRLALRICNLRKIQPQHFEPDAERPGGVKLTVDGRKIFLEEWEGHLARPLREPGVAAEHRLDVHRLLQRQVDRLVSDLRGGEPYRPFRFGTSRPG”, the “soluble on expression in E. coli” value is reported as “not soluble”. In the case of “PEMKIVMTSTTEVMEEVLVVAYGTAKKSAFTGSAKMIHTEQITKRPVTNVIESLSGQVAGLQMTMTNGQPGETPSILIRGISSMSAKTDPLIVLDGMPYEGGWNNINPADVESISVLKDAASTALYGARGANGVIIITTKSAKAGD”, the “soluble on expression in E. coli” value is reported as “not soluble”. For “GAMGNERRILEQKKHYFWLLLQRTYTKTGKPKPSTWDLASKELGESLEYKALGDEDNIRRQIFEDFKPE”, the “soluble on expression in E. coli” value was “soluble”. For “MGSDKIHHHHHHMEFIEFGYGTSTDENSLKAGAHAASDALKMMKKYSEKPNIVFLYSSPDYDPEEVLNGVKLILGNSVQIVGGSSKFQICGNKFLENGVSVGILGSKYFNTGMGVGLGISINPKESGKKAVKDAVENLGMLPKLLYVITDFCKCEEQVLKGIIEELGVTIPIFGGVSSDDFEFEHTYQYGNDVYLDSIVCVAFGGDIVPKISYNNYEYGENSGKLENIITKSEKRSIEEIGNISAVKRYIEISGYKGTVNELEKDPEFYLSHPLGILDTTGDIHLKGPISIKNKKLITGSNISNSNELKIENIDKNAIKNIFETNTSVLNNTQPHYEPALTFCNISSFLSEINPDEIEKLIEKSDINPFFGSSTFGEISLKKYGNYSMSMCSFAPDLVTISAKEGIHMFTKHPATKETLIKIHELGGSVKVEELAKSLGIHRRSAYDRIDPLLKYGFIEKDQAVIKITEFGKLLLKFEF”, the “soluble on expression in E. coli” value was “not soluble”. For “MQCNVCEFGCEIDEYSRGRCRTYVCTGDTIIQDPDMGYLGAYPVSIETIPLLHYYPSGKFLQVFGTGCNFQCSGCVARLLASGKSLSSTTLTPSQVVEKALQQDCLGVVSTLNEPAANYYLFRDLAVQAKEKGLLVGCSTNCYFTEETLNKLGQLVDFMNVGIKGYSDRSYISCGVPSSAPVFRNISLLFDMGVHVETSVVYSRGNEADVIKVAEAVSDISPTIPVQVMRFIPFGDAPIELEPSVGEAESLCADLRKYVDYVYLFNSPGTELLNTYCPECGSLLAEREFYGPMGSRPVRPWITYSCDCGKTVPVKGTTAVERFNEEGFMGGYRISRAFGMVHGVLTCLGILDDSRLIDVWREISDSGTLMKVHHMIQQPYAYLDFVRLIAERANMPEKGEELISFIHTRLELVKSLAAENSGHKVYYCMGSPLFALNAGRMENNLVAFSGGLSINKQLQKEGKPGINVSPSFINENNPDTIFISGFLSRPLDEFYTLCRQYGIETDAVKQQRVYEVPPSWDFGNPRWILGLMYIADKLYPGNSGIDLEKEADEFYRQFYGMPYLEHHHHHH”, the “soluble on expression in E. coli” value was “not soluble”. In the case of “GPKDNNKTLKPAIAEYIVKKAKQRIALQRWQDELNRRKNHKGMIFVENTVDLEGPPSDFYYINEYKPAPGISLVNEATFGCSCTDCFFQKCCPAEAGVLLAYNKNQQIKIPPGTPIYECNSRCQCGPDCPNRIVQKGTQYSLCIFRTSNGRGWGVKTLVKIKRMSFVMEYVGEVITSEEAERRGQFYDNKGITYLFDLDYESDEFTVDAARYGNVSHFVNHSCDPNLQVFNVFIDNLDTRLPRIALFSTRTINAGEELTFDYQMKGSGDISSDSIDHSPAKKRVRTVCKCGAVTCRGYLN”, the “soluble on expression in E. coli” value is reported as “soluble”. With “MSASSERELYEAWVELLSWMREYAQAKGVRFEKEADFPDFIYRMERPYDLPTTIMTASLSDGLGEPFLLADVSPRHAKLKRIGLRLPRAHIHLHAHYEPGKGLVTGKIPLTKERFFALADRAREALAFA” the “soluble on expression in E. coli” value was “soluble”. For “MAHHHHHHMKPTKPLLYITGYGPFLEVTENPSATIAQSVAEQVRQSGEADVHHETLDVNLEAVSKYFNRLNESVTAHLEATHPENRVLLVNVGLHSREKEKVLRLEVRAFNELEGNPIDDELPLSTCKDSAFVKGCKLETTTALIEELNAIERNGSDHHEKPRWIISYDAGRYYCNYALYRGVKMQEALNSRVFAVFLHIVASTVVCMEEQVAQVRMLVSHLLKHMEAVE”, the “soluble on expression in E. coli” value was “soluble”.
